Reference: US20230279130A1

Legend:
[1] = target: full length human CCR8 (hCCR8) (human) (UniProt P51685); assay: flow cytometry, CD4+Foxp3+ gated cells of resting human PBMC, anti-human IgG Fc against Foxp3
[2] = target: full length human CCR8 (hCCR8) (human) (UniProt P51685); assay: flow cytometry, CD4+Foxp3+ gated cells of human PBMC stimulated with IL-2 (200 U/ml) for 2 days, anti-human IgG Fc against Foxp3
[3] = target: full length human CCR8 (hCCR8) (human) (UniProt P51685); assay: flow cytometry, CD4+Foxp3+ gated cells of OKT-3 stimulated human PBMC, anti-human IgG APC against Foxp3 PE

For Anti RSV (antibody), the percent of CD4+Foxp3+ cells in the gate 'Foxp3 ahigG Subset' [1] was 0.11% and the percent of CD4+Foxp3+ cells in the gate 'Foxp3 ahigG Subset' [2] was 0.36%.
“anti-DNP (dinitrophenyl) control antibody” was tested, and the percent of CD4+Foxp3+ cells stained (upper right quadrant) [3] was 6.23%.
